From patent US20220064331A1 (Genentech, published 2022)

B1: 11F1 (antibody, V domains shown)
VH: EVQLVESGGGLVKPGGSLKLSCAPSGFTFSSYGISWVRQTPEKRLEWVATVSSGGRYTYYPDSVKGRFTISRDNAENTLYLQMSSLRSEDTAMYYCTRGGDGYALDYWGQGTSVTVSS
VL: DIQMTQTTSSLSASLGDRVTIICSASQVISNYLNWYQQKPDGTVKLLIYFTSSLRSGVPSRFSGSGSGTDYSLTISNLEPEDVATYFCQQYSKLPWTFGGGTKLELK
notes: murine hybridoma-derived anti-KLB antibody
B2: 46C3 (antibody, V domains shown)
VH: EVQLQQSGAELVKPGASVKLSCTASDFNIIDTYIHWVKQRPEQGLEWIGRIDPANGNTKYDPKFQDKAALTSDTDSNTAYLLFNSLTSEDTAVYYCARGTSYSWFAYWGQGTLVSVSA
VL: AVLMTQTPLSLPVSLGDQASISCRSSQNIVHSDGNTYLEWYLQKPGQSPKLLIYKVSNRFSGVPDRFSGSGSGRDFTLKISRVEAGDLGVYYCFQGSHVLTFGAGTRLELK
notes: as for B1
B3: 21H3 (antibody, V domains shown)
VH: QVQLQQPGAEIVKPGASVRLSCKASGYSFTSYWIHWVKQRPGQGLEWIGEIDPSVSNSNYNQKFKGKATLTADKSSSTAYMQLSGLTSEDSAVYFCVRLGVMVYGSSPFWFAYWGQGTLVTVSA
VL: DIVMTQSQKFMSTSVGDRVSITCKASQFVSDAVAWYQQKPGQSPKLLICSASYRYTGVPDRFTGSGSGTDFTFTISSVRTEDLAVYYCQQHYIVPYTFGGGTTLEIE
notes: as for B1
B4: 14E6 (antibody, V domains shown)
VH: EVPLQQSGPELVKPGATVKISCKPSGDTFTEYTMNWVRQSHGKSLEWIGGINPNNGETSYNQKFKGKATLTVDKSSSTAFMDLRILTSEDSAVYFCARKTTNYWGQGTTLIVSS
VL: DIQMTQSPSSLSASLGERVSLTCRASQEISGYLSWLQQKPDGTIKRLIYAASTLDSGVPRRFSGSRSGSDYSLTISSLESEDFADYYCLQYGSYPWTFGGGTKLELK
notes: as for B1
B5: 8C5 (antibody, V domains shown)
VH: QVQLKQSGPGLVQPSQSLSVACTVSDFSLTTYGVHWVRQSPGKGLEWLGVIWSGGSTDYNAAFISRLTISKDNSKSQVFFKMNSLQTTDTAIYYCARDYGSTYVDAIDYWGQGTSVTVSS
VL: DIVLTQSPTSLAVSLGQRATISCRASESVESYGNRYMTWYQQKPGQPPKLLIYRAANLQSGIPARFSGSGSRTDFTLTIDPVEADDVATYYCQQSNEDPWTFGGGTKVEIK
notes: murine hybridoma-derived anti-KLB antibody; also called KLBmAb1
B6: 8E1 (antibody, V domains shown)
VH: EVQLQQSGAELVKPGASVKLSCTAADFNIKDTYMHWVKQRPEQGLEWIGRIDPSNGNAKYDPKFQGKASITADSSSNTAYLHLSSLTSEDTAVYYCASRALGNGYALGYWGQGTSVTVSS
VL: DIQMTQSSSYLSVSLGGSVTITCKASDHINNWLAWYQQKPGNAPRLLIYGTTNLETGVPSRFSGSGSGRDYILSITSLQSEDVASYYCQQYWNTPFTFGSGTKLEIK
notes: as for B1

target: T1, human KLB expressed on cells (human, UniProt Q86Z14 53-1044); test: FACS on cells expressing hKLB, hKLA and chimeras; domain of hKLB recognized
T1 construct: on transfected 293 / HEK293 cells; also called hKLB; beta-Klotho

Q: Does B1 bind?
A: Result: binds

Q: Does B2 bind?
A: Result: binds

Q: Does B3 bind?
A: Result: binds

Q: Does B4 bind?
A: Result: binds

target: T2, hKLB-ECD-HIS protein (human, UniProt Q86Z14 53-996); test: ELISA on hKLB-ECD-HIS protein, chimeric IgG (murine variable, hIgG1 constant regions), OD450
T2 construct: recombinant hKLB-ECD-HIS protein (R&D Systems); also called recombinant KLB-ECD protein; not shown: HIS tag
From the text: In addition, some of the antibodies were ranked by ELISA. For these experiments, anti-KLB antibodies that were chimeric recombinant IgG with murine variable regions and hIgG1 constant regions were used to measure binding to hKLB-ECD-HIS protein.

Q: Does B1 bind?
A: Result: binds

Q: Does B5 bind?
A: Result: binds

Q: Does B4 bind?
A: Result: binds

Q: Does B6 bind?
A: Result: binds
